We go through two substances from US20220409512A1, “ORAL CARE COMPOSITIONS FOR GUM HEALTH” (The Procter & Gamble Company, priority 2020, published 2022).

Data set [1] deals with Primary Human Gingival Fibroblasts. The experiment in a line: In-Vitro Human Gingival Fibroblasts Soluble Collagen Assay. The format is cell-based. The note with it: 72 hours. As to the method:
Stage 1: Culturing Primary Human Gingival Fibroblasts (“HGF”): Primary Human Gingival Fibroblasts (“HGF”) were collected from tooth extraction patients and washed with 5 mL of PBS (phosphate buffered saline). The tissues were chopped into small pieces and placed into 15 mL centrifuge tube. The samples were digested with equal amounts of 1 mL 8% dispase and 1 mL 6% collagenase for 1 hr at 37° C., during which time the samples need to be shaken every 15 minutes. Once the digestion process was complete, the tube was centrifuged at 1100 r.p.m. for 6 minutes at room temperature. After centrifugation, a pellet of cells was formed in the bottom of the tube separating them from the supernatant solution. […] The petri dish with cells were placed in the incubator at 37° C. with 5% CO2 for about 10 days. The petri dish was checked for changes in medium color every two days. Fresh culture medium was replaced if changes in medium color occurred.
It was occasionally necessary to tap the petri dish to remove any sticky cells from the petri dish surface. At least 1 mL of fresh MEM culture medium was added to inactivate the trypsin and the cells are collected into a 15 mL centrifuge tube. The tube was then centrifuged at 1100 r.p.m. for 6 minutes at room temperature. […] Petri dishes were each placed with 1 mL cell suspension and 9 mL fresh MEM culture medium in the incubator at 37° C. with 5% CO2 for about 3-5 days until 80-90% cell monolayer coverage on the petri dishes was observed. […] 1 mL cell suspension and 1 mL fresh MEM culture medium were respectively added into each well of a 6-well plate. The cells were further washed with 2 mL PBS to remove any suspended cells until no suspended cells are visible. 2 mL culture medium, or 2 mL culture medium containing 1% Comparative Compositions or 2 mL culture medium containing 1% Inventive Compositions were added to the wells. Cells were maintained in the incubator at 37° C. with 5% CO2 for 72 hours.
After treatment, cells were washed two times with chilled PBS and homogenized with 6M urea. The cell homogenates were centrifuged at 15,000 r.p.m. for 15 min. 100 μL of the supernatant was mixed with 1 mL of Sircol Dye Reagent for 30 minutes. During this time period, a collagen-dye complex formed and precipitated out from the soluble unbound dye. The tubes were transferred to a microcentrifuge and spun at 12,000 r.p.m. for 10 minutes. The tubes were carefully inverted and drained. 750 μL ice-cold Acid-Salt Wash Reagent was gently added to the collagen-dye pellet to remove unbound dye from the surface of the pellet and the inside surface of the microcentrifuge tube. The tube was then centrifuged at 12,000 r.p.m. for 10 minutes. […]

The next data set concerns COL1A1. The experiment in a line: Compound Screening on Skin Dermis, collagen gene expression (microarray). The format is in vivo, human. The note with it: dorsal forearm twice daily, four weeks, retinol at 0.2%, Pal-KTTKS at 100 ppm, vs vehicle, p-value in brackets. The text has this: (§1) To screen compounds, 30 to 40 female subjects with Fitzpatrick skin types I-III, aged 60-70. At Baseline, each subject was assigned to test each treatment. The products were applied to the dorsal forearm twice daily. Topical treatment with a minimally efficacious moisturizer was used as the vehicle for each test compound and as the negative control.
(§2) After four weeks of treatment, one 4-mm punch biopsy was taken from each treated site. The dermis was separated and snap-frozen in liquid nitrogen and stored at −80° C. until assayed. The frozen tissue was then processed for gene expression analysis. To determine gene expression levels, RNA was extracted, labeled with biotin, hybridized and analyzed using Affymetrix GeneTitan® U219 microarray plates according to the manufacturer's instructions.
(§3) For genomics analysis, microarray sample quality was assessed using principal components analysis and MA-plots. Treatment to negative control comparisons for the microarray data were assessed using ANOVA models fitted separately for each probe set. ANOVA model hypothesis tests were evaluated using the Empirical Bayes method available in the limma R package. A p-value cutoff of 0.05 or less was consider statistically significant.

For another data set, the system named is COL1A2. The data set is described as above. The note with it: dorsal forearm twice daily, four weeks, retinol at 0.2%, Pal-KTTKS at 100 ppm, vs vehicle, p-value in brackets. The format is in vivo, human.
Excerpt: as §1, §2, §3

Turning to TGF-B, the “Collagen Productivity (Collagen/Cell)” value in data set [1] (Table 5, 1% composition in culture medium, TGF-B 5 ppm) is on record as 5.17 Collagen/Cell; in data set [1] (Table 6, 1:100 dilution, TGF-B 5 ppm) it was 4.86 Collagen/Cell; in data set [1] (Table 7, 1:100 dilution, TGF-B 5 ppm), 4.86 Collagen/Cell; in data set [1] (Table 9, 1:100 dilution, TGF-b 5 ppm) it was 5.17 Collagen/Cell.
Turning to “palmitoyl-lys-thr-thr-lys-ser [Pal-KTTKS]”, the “COL1A1 LFC (Log base 2 of the average Fold Change)” value with COL1A1 is on record as −0.15 (0.44). In addition, in the data set with COL1A2, the “COL1A2 LFC (Log base 2 of the average Fold Change)” value is −0.048 (0.91).
